Measurements: patent publication EP4714975A1 (Nanjing Leads Biolabs Co., Ltd., dated 2026)
Changes are numbered by the printed parent chain.

B1: anti-LILRB4xCD3 bispecific antibody huB1G5-CD3Fab (bispecific antibody, human IgG1, lambda, L234A L235A)
heavy 1: not shown
light: QAVVTQEPSLTVSPGGTVTLTCRSSTGAVTTSNYANWVQQKPGQAPRGLIGGTNKRAPGVPARFSGSLLGGKAALTLSGAQPEDEAEYFCALWYSNLWVFGGGTKLTVLGQPKAAPSVTLFPPSSEELQANKATLVCLISDFYPGAVTVAWKADSSPVKAGVETTTPSKQSNNKYAASSYLSLTPEQWKSHRSYSCQVTHEGSTVEKTVAPTEC
heavy 2: EVQLVESGGGLVQPGGSLRLSCAASESIFSSNVMGWYRQAPGKQRELVAAVGIQGLTKIGDSVKGRFTISRDNAKNSVYLQMNSLRAEDTAVYYCAAGAYVRFLQQSPDYWGQGTQVTVSSEPKSSDKTHTCPPCPAPEAAGGPSVFLFPPKPKDTLMISRTPEVTCVVVAVSHEDPEVKFNWYVDGVEVHNAKTKPREEQYNSTYRVVSVLTVLHQDWLNGKEYKCKVSNKALAAPIEKTISKAKGQPREPQVCTLPPSRDELTKNQVSLSCAVKGFYPSDIAVEWESNGQPENNYKTTPPVLDSDGSFFLVSKLTVDKSRWQQGNVFSCSVMHEALHNHYTQKSLSLSPGK
notes: HC1: CD3Fab heavy chain-knob; LC1: CD3Fab light chain; HC2: huB1G5-hole (VHH huB1G5-3 and Fc hole); One anti-LILRB4 VHH, one anti-CD3 Fab, knob-in-hole Fc
B2: anti-LILRB4xCD3 bispecific antibody huB1G5-CD3-2VHH (bispecific antibody, human IgG1, lambda, L234A L235A)
heavy 1: not shown
light: B1 light
heavy 2: B1 heavy 2
notes: HC1: huB1G5-CD3Fab heavy chain-knob (VHH, GGGGS, hu34H1-VH, CH1, Fc knob); LC1: CD3Fab light chain; HC2: huB1G5-hole; Two anti-LILRB4 VHHs, one anti-CD3 Fab
B3: anti-LILRB4xCD3 bispecific antibody huB1G5-ScFv-2VHH (bispecific antibody)
heavy 1: not shown
heavy 2: B1 heavy 2
notes: HC1: huB1G5-Hu34ScFv-knob (VHH, GGGGS, 23L2 ScFv, Fc knob); HC2: huB1G5-hole
B4: h193 (a fully human monoclonal antibody against LILRB4) (antibody, human IgG1, kappa, V domains shown)
VH: EVQLVESGGGLVQPGGSLRLSCAASGFSLSSSYWISWVRQAPGKGLEWIGSIDSGSVGITYYATWVKGRFTISRDNSKNTLYLQMNSLRAEDTAVYYCARHGDNWALDLWGQGTLVTVSS
VL: DLVMTQSPSTLSASVGDRVTITCQASQSINSWLAWYQQKPGKPPKLLIYKASTLASGVSSRFSGSGSGTEFTLTISSLQPDDVATYYCQHGYIRGDLDNVFGGGTKVEIKR
notes: Control antibody; also called antibody h193; control antibody h193
B5: humanized anti-LILRB4 antibody huB1G5-1 (antibody, V domains shown)
VH: EVQLVESGGGLVQPGGSLRLSCAASESIFSSNVMGWYRQAPGKQRELVAAVGINGLTKIGDSVKGRFTISRDNAKNSVYLQMNSLRAEDTAVYYCAAGAYVRFLQNSPDYWGQGTQVTVSS
notes: Humanized VHH-Fc heavy-chain antibody without light chain; also called Humanized anti-LILRB4 VHH huB1G5-1-Fc
B6: humanized anti-LILRB4 antibody huB1G5-3 (antibody, V domains shown)
VH: B5 VH with N54Q, N106Q
notes: Humanized VHH-Fc heavy-chain antibody without light chain; also called Humanized anti-LILRB4 VHH huB1G5-3-Fc
B7: anti-LILRB4 chimeric antibody B1A2 (antibody, human IgG1, V domains shown)
VH: QVQLVESGGGLVQPGGSLRLSCAASGFTFSSYTMSWVRQAPGKGLEWISDINNDGGKTYYAFSVEGRFTISRDNAKNTLYLQMNSLKPEDTAVYYCVRDHQYTSRNGDRGQGTQVTVSS
notes: also called Camelid-derived anti-LILRB4 VHH B1A2-Fc
B8: anti-LILRB4 chimeric antibody 1H12 (antibody, human IgG1, V domains shown)
VH: EVQVVESGGGLVQAGGSLRLSCAASETIFSSNVMGWYRQAHGKQRELVAATGINGVTKYADSVKGRFTISRDNAKNTVYLQMNSLNVEDTAVYYCAAGVWRNFVMRSPDYWGQGTQVTVSS
notes: also called Camelid-derived anti-LILRB4 VHH 1H12-Fc
B9: anti-LILRB4 chimeric antibody 2A3 (antibody, human IgG1, V domains shown)
VH: EVQVVESGGGSVQTGGSLTLSCAASGRTFRSNGMGWFRQAPGKEREFVAAIRWSGRRTTYTDSVKGRFTISSDSAKNTVYLQMSSLKPEDTAVYYCAVDLLPPYGALDKYDYWGQGTQVTVSS
notes: also called Camelid-derived anti-LILRB4 VHH 2A3-Fc
B10: anti-LILRB4 chimeric antibody B1G5 (antibody, human IgG1, V domains shown)
VH: B5 VH with P14A, A40S, K43H, S77T, R86K, A87V
notes: also called Camelid-derived anti-LILRB4 VHH B1G5-Fc

Target: human CD3 protein (Sino Biological, Cat. No.: CT038-H2508H) (human, UniProt P07766 23-126)
Sequence (P07766 23-126): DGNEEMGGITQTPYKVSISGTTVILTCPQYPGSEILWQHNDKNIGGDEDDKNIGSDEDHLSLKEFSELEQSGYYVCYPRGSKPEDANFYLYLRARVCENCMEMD
Experiment: BLI (ForteBio Octet RED96e), antibody captured on AHC sensor, antigen in solution, 1:1 model

Row | Binder | Kd [µM] | koff [s⁻¹] | kon [M⁻¹ s⁻¹]
1 | B1 | 0.0263 | 0.00803 | 305000
2 | B2 | 0.0226 | 0.00549 | 242000
3 | B3 | 0.0357 | 0.0112 | 313000

Target: T1, cynomolgus monkey CD3 protein (ACRO Biosystems, Cat. No.: CDD-C52W4) (cynomolgus monkey, UniProt Q95LI5 22-117)
T1 sequence (looked up): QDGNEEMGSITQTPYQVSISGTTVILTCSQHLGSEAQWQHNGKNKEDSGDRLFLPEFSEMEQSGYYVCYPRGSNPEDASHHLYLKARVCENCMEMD
Experiment: as above

Row | Binder | Kd [µM] | koff [s⁻¹] | kon [M⁻¹ s⁻¹]
4 | B1 | 0.00659 | 0.0021 | 318000
5 | B2 | 0.00692 | 0.00191 | 276000
6 | B3 | 0.0282 | 0.00801 | 284000

Target: T2, cynomolgus monkey LILRB4 protein (ACRO Biosystems, Cat. No.: CDK-C5227) (cynomolgus monkey)
T2 construct: Bought reagent
Experiment: as above

Row | Binder | Kd [µM] | koff [s⁻¹] | kon [M⁻¹ s⁻¹]
7 | B1 | 0.011 | 0.00351 | 320000
8 | B2 | 0.0106 | 0.0023 | 218000
9 | B3 | 0.0153 | 0.00365 | 238000

Target: T3, human LILRB4 endogenously expressed on tumor cells (MV-4-11, HL-60) (human, UniProt Q8NHJ6 22-448)
T3 construct: whole, on cells; also called tumor cells (MV-411) expressing human LILRB4; HL-60 cells that endogenously express human LILRB4
Experiment: flow cytometry on MV-4-11 cells

Row | Binder | binding result
10 | B4 | binds
11 | B5 | binds
12 | B6 | binds

Target: T4, human LILRB4 expressed on CHO-K1 cells (CHO-K1-huLILRB4) (human, UniProt Q8NHJ6 22-280)
T4 construct: also called engineered cells expressing human LILRB4
Experiment: flow cytometry on CHO-K1-huLILRB4 cells

Row | Binder | binding result
13 | B7 | binds
14 | B4 | binds
15 | B8 | binds
16 | B9 | binds
17 | B10 | binds
